Assay results reported in patent publication US20140304847.

Tests used:
ZFN-Rab38-L (artificial) = assay: cell_activity; details: with ZFN-Rab38-R; 3 of 52 mice from mRNA-injected zygotes with Rab38-cht vector, no NHEJ inhibition
ZFN-Rab38-R (artificial) = assay: cell_activity; details: with ZFN-Rab38-L; 3 of 52 mice from mRNA-injected zygotes with Rab38-cht vector, no NHEJ inhibition

Sequence	activity (% targeted mice) (ZFN-Rab38-L (artificial))	activity (% targeted mice) (ZFN-Rab38-R (artificial))
ATGCAGACACCTCACAAGGAGCACCTGTACAAGCTGCTGGTGATCGGCGACCTGGGTGTGGGCAAGACCAGCATTATCAAGCGCTATGTGCACCAAAACTTCTCCTCGCACTACCGGGCCACCATTGGTGTGGACTTCGCGCTGAAGGTGCTCCACTGGGACCCAGAGACGGTGGTGCGCTTGCAGCTCTGGGACATTGCTG (double strand) [Rab38 exon 1 ZFN-L half-site]	5	–
ATGCAGACACCTCACAAGGAGCACCTGTACAAGCTGCTGGTGATCGGCGACCTGGGTGTGGGCAAGACCAGCATTATCAAGCGCTATGTGCACCAAAACTTCTCCTCGCACTACCGGGCCACCATTGGTGTGGACTTCGCGCTGAAGGTGCTCCACTGGGACCCAGAGACGGTGGTGCGCTTGCAGCTCTGGGACATTGCTG (double strand) [Rab38 exon 1 ZFN-R half-site]	–	5
